The values that follow are results of earlier work, collected in article PMC11267001.

The data set has as its target DOCK5ΔC/ELMO1 DOCK5 1-1642 (Homo sapiens) (UniProt Q9H7D0).

Usually Kd stands for the free concentration of one partner at which half of the binding sites on the other are occupied at equilibrium, for simple one-to-one binding. For RhoG (from UniProt P84095), the Kd was 10 µM.
